Where no end group is shown, it is not given here. The star is where a group is joined. FITC = O=C1OC2(c3ccc(O)cc3Oc3cc(O)ccc32)c2ccc(NC(=S)*)cc21

The results in this text go back to PMC3524239, “Brain Transcriptome-Wide Screen for HIV-1 Nef Protein Interaction Partners Reveals Various Membrane-Associated Proteins” (PLoS ONE, 2012).

Assay [1] addresses fluoresceinyl-labeled peptide of PLP1. The experiment in a line: other fluorescence titration; 0.5 µM fluoresceinyl-labeled peptide titrated with recombinant Nef(2-210); compared with a buffer control titration; fit of a simple bimolecular model with ligand depletion.
The target in assay [2] is T1, recombinant HIV-1 SF2 Nef(2-210) protein (HIV-1 isolate SF2, UniProt P03407 2-210).
T1 construct: Nef protein of HIV-1 isolate SF2, residues 2-210; also called purified Nef protein; source: recombinant, purified, prepared as described in [68]
Described as above. The following applies: both partners purified.

T1 sequence (P03407 2-210): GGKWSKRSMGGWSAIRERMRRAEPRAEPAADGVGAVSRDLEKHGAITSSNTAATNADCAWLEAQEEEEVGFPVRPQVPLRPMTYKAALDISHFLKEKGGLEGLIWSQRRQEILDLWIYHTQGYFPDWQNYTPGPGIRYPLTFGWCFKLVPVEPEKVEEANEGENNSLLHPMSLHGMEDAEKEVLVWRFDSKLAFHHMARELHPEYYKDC

For the molecule “recombinant HIV-1 SF2 Nef(2-210) protein (from UniProt P03407 2-210) (natural protein)”, in assay [1], the Kd (commonly the equilibrium constant for the complex coming apart) was 710 nM.

B1: fluoresceinyl-labeled peptide GPM6B(112-127) (peptide, UniProt Q13491-1 112-127, looked up)
peptide: {FITC}-TTSAVKELHGEFKTTA
notes: GPM6B cytoplasmic loop, residues 112-127; numbers count on: UniProtKB entry Q13491-1; also called FITC-labeled GPM6B peptide; source: synthetic peptide
On to B1, for which, in assay [2], the Kd was 640 ± 60 nM.
